Measurements: patent publication US20040006777A1, “Human lymphoid protein tyrosine phosphatases” (HSC Research and Development Limited Partnership, priority 1998, published 2004)
“Also recorded” adds a separate entry of the source.

T1: Lyp1 (Homo sapiens, UniProt Q9Y2R2)
T1 construct: made in house; host or cells: COS cells (transient transfection, pcDNA3); anti-T7 immunoprecipitate
T1 sequence (Q9Y2R2 1-807): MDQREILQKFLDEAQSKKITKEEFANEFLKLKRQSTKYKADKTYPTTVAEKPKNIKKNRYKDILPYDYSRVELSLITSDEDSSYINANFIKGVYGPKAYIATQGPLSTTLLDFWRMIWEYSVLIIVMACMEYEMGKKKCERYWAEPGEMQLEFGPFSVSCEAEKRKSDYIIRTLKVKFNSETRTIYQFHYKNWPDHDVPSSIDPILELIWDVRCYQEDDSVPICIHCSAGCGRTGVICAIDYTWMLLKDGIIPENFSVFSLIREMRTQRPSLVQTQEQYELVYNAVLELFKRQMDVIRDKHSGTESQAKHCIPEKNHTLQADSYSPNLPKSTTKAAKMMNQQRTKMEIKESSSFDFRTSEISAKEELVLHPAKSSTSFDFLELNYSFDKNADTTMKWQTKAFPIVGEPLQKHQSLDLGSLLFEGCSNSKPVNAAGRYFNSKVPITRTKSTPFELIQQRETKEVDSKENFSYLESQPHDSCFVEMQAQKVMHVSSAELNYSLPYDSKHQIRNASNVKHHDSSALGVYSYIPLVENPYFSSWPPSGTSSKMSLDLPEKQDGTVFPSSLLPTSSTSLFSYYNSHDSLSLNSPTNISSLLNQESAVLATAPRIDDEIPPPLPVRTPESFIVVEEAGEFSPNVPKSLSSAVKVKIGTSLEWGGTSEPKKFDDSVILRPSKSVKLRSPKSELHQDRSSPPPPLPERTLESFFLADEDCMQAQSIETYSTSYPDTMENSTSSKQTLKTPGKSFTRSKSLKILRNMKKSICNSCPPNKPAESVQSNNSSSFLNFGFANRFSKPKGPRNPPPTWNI


Legend:
[1] = test system: Ick; experiment: Co-transfection of Lyp1 and src family kinases; type: cell-based; conditions: Lyp1 with src family kinases
[2] = test system: Syk; experiment: Co-transfection of Lyp1 or Lyp-N and kinase cDNA, kinase immunoprecipitation, anti-phosphotyrosine Western blot; type: cell-based; conditions: co-transfection with Syk
Method: (§1) Western blotting was performed with anti-phosphotyrosine antibodies and chemiluminescent detection reagents. […] Syk was unaffected by Lyp1 (C).
(§2) Western blotting was performed with anti-phosphotyrosine antibodies and chemiluminescent detection reagents. Lyp1 reduced the tyrosine phosphorylation of Jak3 (C) while having little effect on Syk (D). No effect was seen when Syk was co-transfected with Lyp-N (D).
cDNA for the phosphatase Lyp1 and the indicated kinase, in the eucaryotic expression vector pcDNA3, were transiently transfected into either the COS-7 monkey epithelial cell line (A) or the 293T human epithelial cell line as indicated. 48 hours after transfection, cells were harvested, lysates made in 1 & NP-40 lysis buffer and immunoprecipitations performed with antibodies to the transfected kinase. Immunoprecipitates were washed, boiled in SDS sample buffer and electrophoresed on SDS-PAGE. After electro-transfer to nitrocellulose membrane, Western blotting was performed with anti-phosphotyrosine antibodies and chemiluminescent detection reagents. […] Lyp1 could also down-regulate Zap-70 after its activation by Fyn in 293-T cells (B, lanes 3 and 4). The closely related Zap family kinase Syk was also unaffected by Lyp1 (C). […]

[3] = test system: Lyn kinase; experiment: Effect of Lyp1 on Lyn kinase activity; type: cell-based
[4] = test system: Jak3; experiment: Co-transfection of Lyp1 and kinase cDNA in COS-7, kinase immunoprecipitation, anti-phosphotyrosine Western blot; type: cell-based; conditions: COS-7 cells
Method: as §2
cDNA for the phosphatase Lyp1 and the indicated kinase, in the eucaryotic expression vector pcDNA3, were transiently transfected into the COS-7 monkey epithelial cell line. 48 hours after transfection, cells were harvested, lysates made in 1% NP-40 lysis buffer and immunoprecipitations performed with antibodies to the transfected kinase. Immunoprecipitates were washed, boiled in SDS sample buffer and electrophoesed on SDS-PAGE. After electro-transfer to nitrocellulose membrane, Western blotting was performed with anti-phosphotyrosine antibodies and chemiluminescent detection reagents.

[5] = test system: Zap-70; experiment: Co-transfection of Lyp1 and kinase cDNA, kinase immunoprecipitation, anti-phosphotyrosine Western blot; type: cell-based
Method: as §1
(§3) cDNA for the phosphatase Lyp1 and the indicated kinase, in the eucaryotic expression vector pcDNA3, were transiently transfected into either the COS-7 monkey epithelial cell line (A) or the 293T human epithelial cell line as indicated. 48 hours after transfection, cells were harvested, lysates made in 1 & NP-40 lysis buffer and immunoprecipitations performed with antibodies to the transfected kinase. Immunoprecipitates were washed, boiled in SDS sample buffer and electrophoresed on SDS-PAGE. After electro-transfer to nitrocellulose membrane, Western blotting was performed with anti-phosphotyrosine antibodies and chemiluminescent detection reagents. […] Lyp1 could also down-regulate Zap-70 after its activation by Fyn in 293-T cells (B, lanes 3 and 4). The closely related Zap family kinase Syk was also unaffected by Lyp1 (C).

[6] = test system: Fyn; experiment: as above; type: cell-based; conditions: COS-7 and 293-T cells
Method: as §1, §3

[7] = molecular target: T1, Lyp1; experiment: In vitro phosphatase assay with 33P labelled Raytide peptide and Lyp immunoprecipitates; type: biochemical; conditions: Lyp immunoprecipitates from transfected COS cells compared to control immunoprecipitates from untransfected cells
Method: Anti-Lyp immunoprecipitates from untransfected and pcDNA3-Lyp1 transfected cells were prepared in pervanadate free lysis buffer and incubated with ^33P labelled substrate Raytide. At the indicated time points reactions were stopped by the addition of charcoal and the free ^33P released from the peptide and now present in the supernatant measured by liquid scintillation counting.
Raytide peptide was ^33P labelled on tyrosine residues in vitro using the tyrosine kinase p60src and purified on phosphocellulose paper. Release of ^33P over time was measured in the phosphatase assay and compared to controls from untransfected cells.
Specifically, the synthetic peptide Raytide was phosphorylated according to the method described by Guan et al., (1994)(54), on tyrosine by p60src (Oncogene Science) as follows: 10 μg Raytide in 50 mM Hepes pH 7.5, 10 mM MgCl2, 0.067% mercaptoethanol, 0.05 mM ATP was incubated with 300 μCiγ^33P ATP per ml and 2 μg p60src in a final volume of 30 μl. The reaction was allowed to proceed for 30 minutes at 30° C. and was stopped by the addition of […] 10% phosphoric acid.
The sample was spotted onto two 1×1 cm sheets of P81 phophocellulose paper and extensively washed with 0.5% phosphoric acid. […]
The phosphorylated substrate was used in the phosphatase assay as described by Stueli et al (1989)(54). […] After centrifugation the free ^33P in the supernatant was measured.

[8] = test system: Cbl; experiment: Lyp1 transfection into COS-7 cells, Cbl immunoprecipitation, anti-phosphotyrosine blot; type: cell-based, monkey; conditions: Lyp1 transfected COS-7 cells, endogenous Cbl
Method: (A) Lyp immunoprecipitates from thymocytes (80×10^6 cells) stimulated with anti-CD3 were blotted with antiphsophotyrosine. A single phosphorylated band of 116 kD was detected co-immunoprecipitating with Lyp. Lyp protein loading was quantitated by anti-Lyp western blot after stripping. […] (C) Lyp1 was transfected into COS-7 cells and Cbl immunoprecipitates prepared from these and untransfected cells. Western blotting was performed with Lyp antibodies. The position of Lyp is indicted by an arrow. Cbl immunoprecipitates were also prepared and blotted with anti-phosphotyrosine (D), and then anti-Cbl after stripping.
One of the earliest events following TCR stimulation of T cells is the induction of tyrosine phosphorylation. In order to determine whether Lyp played a role in TCR signalling, human thymocytes were stimulated with anti-CD3 for various periods of time, Lyp immunoprecipitated and blotted with anti-phosphotyrosine. […] Once activated, the phosphorylation level of this protein remained constant over a period of 20 minutes. The 116 kD phosphorylated protein was identified by western blotting of Lyp immunoprecipitates from CD3 stimulated thymocytes with antibodies to various candidate proteins. […]

33P release from the substrate Raytide [7] | Molecule | Ick dephosphorylation [1] | Syk tyrosine phosphorylation [2] | Lyn kinase activity [3] | Jak3 tyrosine phosphorylation [4] | Zap-70 phosphorylation after its activation by Fyn ([5]; 293-T cells) | Zap-70 tyrosine phosphorylation ([5]; COS-7 and 293-T cells) | Fyn tyrosine phosphorylation [6] | basal level of Cbl tyrosine phosphorylation [8]
seven fold increase | Lyp1: human intracellular 105 kDa lymphoid protein tyrosine phosphatase, 808 amino acids, Sequence ID NO:2 (Table 2) (protein, listed as Homo sapiens) MDQREILQKFLDEAQSKKITKEEFANEFLKLKRQSTKYKADKTYPTTVAENAKNIKKNRYKDILPYDYSRVELSLITSDEDSSYINANFIKGVYGPKAYIATQGPLSTTLLDFWRMIWEYSVLIIVMACMEYEMGKKKCERYWAEPGEMQLEFGPFSVSCEAEKRKSDYIIRTLKVKFNSETRTIYQFHYKNWPDHDVPSSIDPILELIWDVRCYQEDDSVPICIHCSAGCGRTGVICAIVDYTWMLLKDGIIPENFSVFSLIREMRTQRPSLVQTQEQYELVYNAVLELFKRQMDVIRDKHSGTESQAKHCIPEKNHTLQADSYSPNLPKSTTKAAKMMNQQRTKMEIKESSSFDFRTSEISAKEELVLHPAKSSTSFDFLELNYSFDKNADTTMKWQTKAFPIVGEPLQKHQSLDLGSLLFEGCSNSKPVNAAGRYFNSKVPITRTKSTPFELIQQRETKEVDSKENFSYLESQPHDSCFVEMQAQKVMHVSSAELNYSLPYDSKHQIRNASNVKHHDSSALGVYSYIPLVENPYFSSWPPSGTSSKMSLDLPEKQDGTVFPSSLLPTSSTSLFSYYNSHSSLSLNSPTNISSLLNQESAVLATAPRIDDEIPPPLPVRTPESFIVVEEAGEFSPNVPKSLSSAVKVKIGTSLEWGGTSEPKKFDDSVILRPSKSVKLRSPKSELHQDRSSPPPPLPERTLESFFLADEDCMQAQSIETYSTSYPDTMENSTSSKQTLKTPGKSFTRSKSLKILRNMKKSICNSCPPNKPAESVQSNNSSSFLNFGFANRFSKPKGPRNPPPTWNI | no dephosphorylation | unaffected; also recorded: little effect; also recorded: no Syk dephosphorylation | strongly down-regulates | clearly reduced; also recorded: complete dephosphorylation | down-regulate | reduction; also recorded: complete dephosphorylation | unaffected; also recorded: no dephosphorylation | reduce significantly
 | Lyp-N: catalytically inactive form of Lyp1 where Cysteine 227 is replaced by Serine (protein, UniProt Q9Y2R2 1-807, looked up, variant C227S) Tyrosine-protein phosphatase …: MDQREILQKFLDEAQSKKITKEEFANEFLKLKRQSTKYKADKTYPTTVAEKPKNIKKNRYKDILPYDYSRVELSLITSDEDSSYINANFIKGVYGPKAYIATQGPLSTTLLDFWRMIWEYSVLIIVMACMEYEMGKKKCERYWAEPGEMQLEFGPFSVSCEAEKRKSDYIIRTLKVKFNSETRTIYQFHYKNWPDHDVPSSIDPILELIWDVRCYQEDDSVPICIHSSAGCGRTGVICAIDYTWMLLKDGIIPENFSVFSLIREMRTQRPSLVQTQEQYELVYNAVLELFKRQMDVIRDKHSGTESQAKHCIPEKNHTLQADSYSPNLPKSTTKAAKMMNQQRTKMEIKESSSFDFRTSEISAKEELVLHPAKSSTSFDFLELNYSFDKNADTTMKWQTKAFPIVGEPLQKHQSLDLGSLLFEGCSNSKPVNAAGRYFNSKVPITRTKSTPFELIQQRETKEVDSKENFSYLESQPHDSCFVEMQAQKVMHVSSAELNYSLPYDSKHQIRNASNVKHHDSSALGVYSYIPLVENPYFSSWPPSGTSSKMSLDLPEKQDGTVFPSSLLPTSSTSLFSYYNSHDSLSLNSPTNISSLLNQESAVLATAPRIDDEIPPPLPVRTPESFIVVEEAGEFSPNVPKSLSSAVKVKIGTSLEWGGTSEPKKFDDSVILRPSKSVKLRSPKSELHQDRSSPPPPLPERTLESFFLADEDCMQAQSIETYSTSYPDTMENSTSSKQTLKTPGKSFTRSKSLKILRNMKKSICNSCPPNKPAESVQSNNSSSFLNFGFANRFSKPKGPRNPPPTWNI |  | No effect |  |  |  |  |  | 
